Laboratory results from patent US20160289698A1 (TRUSTEES OF DARTMOUTH COLLEGE, published 2016).
One block for each binder: values may come before it.

Assays:
Experiment in all cases: yeast two-hybrid (LexA-KMD bait, B42-ARR prey, X-gal)
ARR12 = target: T1, ARR12 (Arabidopsis, UniProt P62598 1-596)
T1 construct: YFP^N or YFP^C fusion of the full-length cDNA in BiFC; also called AtARR12; type-B response regulator AtARR12
T1 sequence (looked up): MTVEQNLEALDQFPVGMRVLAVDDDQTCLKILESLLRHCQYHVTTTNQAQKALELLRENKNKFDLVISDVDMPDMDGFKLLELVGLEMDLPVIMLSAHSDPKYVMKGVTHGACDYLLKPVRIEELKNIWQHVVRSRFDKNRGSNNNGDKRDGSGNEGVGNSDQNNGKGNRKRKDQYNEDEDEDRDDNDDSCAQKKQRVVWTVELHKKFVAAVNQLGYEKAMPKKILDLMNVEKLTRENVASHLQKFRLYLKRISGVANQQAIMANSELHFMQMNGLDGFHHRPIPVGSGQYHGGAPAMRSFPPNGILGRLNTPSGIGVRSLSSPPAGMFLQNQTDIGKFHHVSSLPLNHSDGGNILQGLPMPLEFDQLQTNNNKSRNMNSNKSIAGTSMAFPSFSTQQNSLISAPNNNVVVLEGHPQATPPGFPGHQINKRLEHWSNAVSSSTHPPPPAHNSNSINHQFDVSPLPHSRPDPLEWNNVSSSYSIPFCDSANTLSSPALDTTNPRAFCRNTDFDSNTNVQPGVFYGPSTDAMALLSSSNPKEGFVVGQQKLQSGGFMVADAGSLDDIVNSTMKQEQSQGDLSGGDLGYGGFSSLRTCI
Text: (§1) The DUPLEX-A™ system (OriGene Technologies) was used for yeast two-hybrid analysis of interactions. KMD cDNAs were cloned into the pGilda bait vector, which produces an in-frame fusion with the LexA DNA-binding domain. Type-B ARR coding sequences were cloned into the pJG4-5 prey vector, which produces a B42 activation domain. The yeast strain EGY48 (MATa, trp1, his3, ura3, leu2::6 LexAop-LEU2) that contains the lacZ reporter plasmid pSH18-34 was transformed with the appropriate “bait” and “prey” plasmids. Interactions were tested on 5-bromo-4-chloro-3-indolyl-p-D-galactopyranoside (X-gal) medium (Ryu, et al. (2005) Cell 120(3): 395-406).
(§2) The KMD proteins also interacted with ARR20 (type-B ARR subfamily-3), but not with ARR19 (subfamily-2) and ARR21 (subfamily-3). […] All four KMD proteins interacted with both ARR1 and ARR12 in a BiFC assay. Strong fluorescence was detected in the nuclei of cells, consistent with the subcellular localization of the type-B ARRs (Hwang & Sheen J (2001) Nature 413(6854):383-389; Mason, et al. (2004) Plant Physiol. 135(2):927-937).

ARR10 = target: T2, ARR10 (Arabidopsis, UniProt O49397 1-552, limits assumed)
T2 construct: also called type-B response regulator ARR10
T2 sequence (looked up): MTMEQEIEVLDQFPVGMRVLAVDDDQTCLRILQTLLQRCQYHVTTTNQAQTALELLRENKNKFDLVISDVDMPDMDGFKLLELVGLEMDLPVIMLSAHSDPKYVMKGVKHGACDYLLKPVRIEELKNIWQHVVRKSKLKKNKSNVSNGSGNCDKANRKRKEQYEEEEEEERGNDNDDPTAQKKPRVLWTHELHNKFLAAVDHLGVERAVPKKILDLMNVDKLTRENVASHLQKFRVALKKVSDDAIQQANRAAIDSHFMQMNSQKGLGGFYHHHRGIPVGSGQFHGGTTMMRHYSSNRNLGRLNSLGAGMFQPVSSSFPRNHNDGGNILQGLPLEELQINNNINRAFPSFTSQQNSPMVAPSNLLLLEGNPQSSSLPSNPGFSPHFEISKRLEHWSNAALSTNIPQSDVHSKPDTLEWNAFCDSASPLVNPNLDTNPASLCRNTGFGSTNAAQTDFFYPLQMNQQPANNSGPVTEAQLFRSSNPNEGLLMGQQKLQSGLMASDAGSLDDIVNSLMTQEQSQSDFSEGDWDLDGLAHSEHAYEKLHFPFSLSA
Text: as §1, §2

[1] = target: T3, ARR20 (type-B ARR subfamily-3) (Arabidopsis, UniProt Q9LZJ8 1-426, limits assumed)
T3 sequence (looked up): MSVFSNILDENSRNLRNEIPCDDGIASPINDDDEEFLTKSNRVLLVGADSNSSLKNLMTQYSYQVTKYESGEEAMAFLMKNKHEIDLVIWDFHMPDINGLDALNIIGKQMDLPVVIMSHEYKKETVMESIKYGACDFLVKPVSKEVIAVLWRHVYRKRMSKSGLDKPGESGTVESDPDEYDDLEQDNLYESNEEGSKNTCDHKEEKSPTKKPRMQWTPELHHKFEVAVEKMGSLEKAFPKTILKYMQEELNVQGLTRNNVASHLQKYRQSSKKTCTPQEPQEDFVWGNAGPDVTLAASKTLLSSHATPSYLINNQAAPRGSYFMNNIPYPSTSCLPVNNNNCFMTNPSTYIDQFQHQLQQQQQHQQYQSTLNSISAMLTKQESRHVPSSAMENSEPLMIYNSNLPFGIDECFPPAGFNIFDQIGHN
Text: as §1, §2

ARR21 (subfamily-3) = target: T4, ARR21 (subfamily-3) (Arabidopsis, UniProt Q9LYP5 1-613, limits assumed)
T4 sequence (looked up): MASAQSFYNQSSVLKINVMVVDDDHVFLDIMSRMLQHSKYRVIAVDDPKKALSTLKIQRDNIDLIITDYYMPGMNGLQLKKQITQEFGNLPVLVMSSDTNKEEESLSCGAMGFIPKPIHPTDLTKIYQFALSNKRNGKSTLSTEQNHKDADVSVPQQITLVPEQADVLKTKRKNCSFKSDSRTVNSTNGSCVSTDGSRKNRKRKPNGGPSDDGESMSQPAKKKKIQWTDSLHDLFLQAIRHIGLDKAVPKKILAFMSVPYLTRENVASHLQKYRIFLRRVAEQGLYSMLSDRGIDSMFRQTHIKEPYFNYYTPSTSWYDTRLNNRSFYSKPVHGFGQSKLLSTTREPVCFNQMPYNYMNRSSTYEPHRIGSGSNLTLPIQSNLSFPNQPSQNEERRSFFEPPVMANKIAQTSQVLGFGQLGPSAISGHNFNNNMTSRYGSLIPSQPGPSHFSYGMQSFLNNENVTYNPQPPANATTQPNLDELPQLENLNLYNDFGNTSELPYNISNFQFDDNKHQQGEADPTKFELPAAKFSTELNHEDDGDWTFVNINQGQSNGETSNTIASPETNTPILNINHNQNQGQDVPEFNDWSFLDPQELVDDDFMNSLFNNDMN
Text: as §1, §2

binding result (ARR12): binds | binding result (ARR10): binds | binding result [1]: binds | binding result (ARR21 (subfamily-3)): no binding
B1: KISS ME DEADLY 1 (KMD1) (other, Arabidopsis, UniProt Q9M8L2 1-354, looked up)
chain: MELIPNLPDDVARECLLRSSYQQFPVIASVCRAWNREVSLSQFLHQRKASRHSQELLILSQARVDPAGSGKIIATPEYRISVLESGSGLWTELPPIPGQTKGLPLFCRLVSVGSDLIVLGGLDPITWQAHDSVFVFSFLTSKWRVGATMPGVRRSFFGCASDSDRTVLVAGGHNEEKCALTSAMVYDVSEDKWTFLPDMARERDECKAVFHAGRFHVIGGYATEEQGQFSKTAESFDVSTWEWGPLTEDFLDDTGDTVSPPTCVAGGDLYACWGGDVMMFLNDKWQKVGQIPADVYNVTYVAVRPGMLIVIGNGKALAGYGEATVGYICDLSSSRWVKLETHGGHVQAGCFLEV
notes: Full-length protein; also called At1g80440

binding result (ARR12): binds | binding result (ARR10): binds | binding result [1]: binds | binding result (ARR21 (subfamily-3)): no binding
B2: KISS ME DEADLY 2 (KMD2) (other, Arabidopsis, UniProt Q9LMR5 1-359, looked up)
chain: MELIPDLPETVAYECLLRSSYKQFPLMASVCKLWQREISLSDFFRHRKASGHSQELVVLSQARVDPVKELVSGNKTIPTPVYRISVLELGTGLRSELPPVPGHSNGLPLFCRLVSVGSDLVVLCGLDPVTWRTSDSVFVFSFLTSTWRVGKSMPGGPRSFFACASDSQRNVFVAGGHDEDKNAMMSALVYDVAEDRWAFLPDMGRERDECTAIFHAGKFHVIGGYSTEEQGQFSKTAESFDVTTWRWSPQGEEFLSSEMTMWPPICAAGENGDLYACCRRDLMMMKDDTWYKVGNLPADVCNVSYVAIRRSGNLVVIGSARYGEPSVGYNWDMSNSRWLKLETHDKYEGHVQAGCFLEI
notes: Full-length protein; LexA fusion in yeast two-hybrid, YFP^N or YFP^C fusion in BiFC; also called At1g15670
